According to publication PMC6917914 (Nature chemical biology, 2019):

Molecular target: His6-DDA1 (full-length human DDA1) (human, UniProt Q9BW61 1-102)
Test: crystal structure

B1: DCAF15_(split) (Strep II Avi-DCAF15 NTD residues 30-264 with Strep II Avi-DCAF15 CTD residues 383-600) (domain or fragment)
chain 1: GRRREHVLKQLERVKISGQLSPRLFRKLPPRVCVSLKNIVDEDFLYAGHIFLGFSKCGRYVLSYTSSSGDDDFSFYIYHLYWWEFNVHSKLKLVRQVRLFQDEEIYSDLYLTVCEWPSDASKVIVFGFNTRSANGMLMNMMMMSDENHRDIYVSTVAVPPPGRCAACQDASRAHPGDPNAQCLRHGFMLHTKYQVVYPFPTFQPAFQLKKDQVVLLNTSYSLVACAVSVHSAGDR
chain 2: EPGYVNYTKLYYVLESGEGTEPEDELEDDKISLPFVVTDLRGRNLRPMRERTAVQGQYLTVEQLTLDFEYVINEVIRHDATWGHQFCSFSDYDIVILEVCPETNQVLINIGLLLLAFPSPTEEGQLRPKTYHTSLKVAWDLNTGIFETVSVGDLTEVKGQTSGSVWSSYRKSCVDMVMKWLVPESSGRYVNRMTNEALHKGCSLKVLADSERYTWIVL
B1: binds.
